According to the nanobody polyreactivity screen of Harvey et al. (2022):

Assay: yeast display, Sf9 membrane polyspecificity reagent, FACS + sequencing; frameworks hold sequencing errors
Outline: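 Synthetic nanobody libraries on Saccharomyces cerevisiae BJ5465 were galactose-induced for 36–48 hours, stained 1 hour at 4 °C with 10% biotinylated, detergent-solubilized Sf9 membrane reagent and enriched on streptavidin microbeads. FACS then separated cells into low and high (top ~1%) gates by anti-HA (expression) and streptavidin (reagent binding) fluorescence. Genes were colony-PCR amplified, MiSeq 2 × 250 sequenced and CDR-length filtered. A clone's polyreactivity label is that of its gate of origin.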

| Sequence | polyreactivity (PSR sort gate) |
| --- | --- |
| QVQLVESGGGLVQAGGSLRLSCAASGGIFGTYTMGWYRQAPGKERELVAAIRSSSGRTYYADSVKGRFTISRDTAKNTVYLQMNSLKPEDTAVYYCNRAYTIQDDYWGQGTQVTVSS | high polyreactivity |
| QVQLGESGGGLVQAGGSLRLSCAASGRTFSYYAKGWNRPAPGKERELVGAISSTGGSTYYADSVKGRFTISRDNAKNTVYLQMNSLKPEDTAVYYCAARWYVLYYRGGYCGQGTQVTVSS | low polyreactivity |
| QVQLVESGGGLVQAGGSLRLSCAASGRIFLQYAMGWYRQAPGKERELVAGISLRGGSTYYADSVKGRFTISRDNAKNTVYLQMNSLKPEDTAVYYCAADVIVTVETNTSGPSFTEYDYWGQGTQVTVSS | low polyreactivity |
| QVQLVESGGGLVQAGGSLRLSCAASGITFVRYAMGWYRQAPGKERELVAAISSGGSTHYADSVKGRFTISRDNAKNTVYLQMNSLKPEDTAVYYCAAQWTESSLYRFGYLGQGTQVTVSS | high polyreactivity |
| QVQLVESGGGLVQAGGSLRLSCAASGIILDPNAMGGYRQAPGKERELVAGITRSGVSTYYADSVKGRFTISRDNAKNTVYLQMKSLKPEDTAVYYCAKDRIYGSKGEDDDYWGQGTQVTVSS | low polyreactivity |
| QVQLLESGGGIVQAGGSLRLSCDSSGSTFGTNAMGWYRQAPGKERELVAVITFSGGSTYYADSVKGRFTISRDNAKNTVYLQMNSLKPEDTAVYYCAKDGFITFVYDHDYWGQGTQVTVSS | low polyreactivity |
| QVQLVDSGGGLVQAGGSLRLSCAASGRTFSSYAMGSYRQAPGKERELVAAINWSGASTYYADSVKGRFTISRDYAKNTVYLQLNSLKPEDTAVYDCAKSLYVGKFWQIRSSVDYWGQGTQVTVSS | low polyreactivity |
| QVQLEESGGGLVQAGGSLRLSCAASGRTFYPNAMGWYRQAPGKERELVAAITRSGGRTYYADSVKGRFTISRDNAYYTVYLQMNSLKPEDSAVYYCNADLYYLYYKYEYWGQGTQVTVSS | low polyreactivity |
| QVQLVESGGGLVQAGGSLRLSCAASGSTFDVNAMGWYRQAPGKERELVAAISFSGGSTYYADSVKGRFTISRDNAKNTVYLQMNSLKPEDTAVYYCAAEEWRSYYEEYDYWGQGTQVTVSS | low polyreactivity |
| QDQLVESGGGLVQAGGSLRLSCAASGITFQWYAMGWYRQAPGKEREFVAAITYRGGSTYYADSVKGRFTISRDNAKNTVYLQMNSLKPEDTAVYYCARDDSRLLHPSWLDYWGKGTQVTVSS | high polyreactivity |
| QVQLVESGGGLVQAGGSLRLSCAASGRIFGAYAMGWYRQAPGKERELVAAITSRGGNTYYADSVKGRFTISRDTAKNTVYLQMNSLKPEDTAVYSCAARHDKRRQYYVGQSAFDYWGQGTQVTVSS | low polyreactivity |
| QVQLVESGGGLVQAGGSLRLSCAASGSTFGRYVMGWYRQAPGKERELVAAISYSGGRTYYADSVKGRFTISRDNAKNTVYLQMNSLKPEDTAVYYCAARVRTVRNTYYSWGQGTQVTVSS | high polyreactivity |
| QVQLVESGGGLVQAGGSLRLSCAASGYTILIYAKGWYRQAPGKERELVASISRSGGSTYYADSVKGRFTISRDNAKNTVYLQMNSLKTEDTAVYYCNADFGYDSVVEYDYWGQGTQVTVSS | low polyreactivity |
| QVHLVESGGGLVQAGRSLRLSCAASGSTFSYNAMGWSRQAPGKERELVAAISNGGSTNYADSVKGRFTISRDNAKYTVFLQMNSLKPEDTAVYYCAAHTYSELSWLVVYPYDYWGQGTQVTVSS | low polyreactivity |
| QVQLVESGGGLVQAGGSLRLSCAASGFTFKLNAMGWYRQAPGKERELVAAISWGGGTTYYADSVKGRFTISRDNAKNTVYLQMNSLKPEDTAVYYCAADGTGTYDYWGQGTQVTVSS | low polyreactivity |
| QVQLVESGGGLVQAGGSLRLSCAASGFTFRKYAMGWYRQAPGKERELVAAISSSGTSTYYADSVKGRFTISRDNAKNTVYLQMNSLKPEDTAVYYCAADRYYWGRYTLNYWGQGTQVTVSS | low polyreactivity |
| QVQLVESGGGLLQAGGSLRLSCADRRTLSFYAKGCSIQAPGKERELVAAISRSGGSTYYADSEKGRFTISRDNAKNTGKLQMNRLKPEDTAVYYFAARSSGGYDYWGQGTQVTVSS | high polyreactivity |
| QVQLVESGGGLVQAGGSLRLSCAASGSIFNYYTMGWYRQAPGKERELVAVITWSDDSTYYADSVKGRFTISRDNAKNTVYLQMNSLKPEDTAVYYCNARSWGWYRIAYGYWGQGTQVTVSS | low polyreactivity |
| QVQLVESGGGLVQAGGSLRLSCAASGSTFTWYAMGWYRQAPGKERELVADISYGGRSTYYADSVKGRFTISRDNAKNTVYLQMNSLKPEDTAVYYCAAESIPYYRYDYWGQGTQVTVSS | low polyreactivity |
| QVQRVESGGGLVQAGGSLRLSCAASGSIFYRNVMGWYRPAPGKERELVAAISSGTSTYYADSVKGRFTISRDNAKNTVYLQMTSLKPEDPAVYYCAAEGPHYYGQRWYYGVDYWGQGTQVTVSS | low polyreactivity |
| QVQLVESGGGLVQAGGSLRLSCAASGSIFRDNAMGWYRQAPGKERELVASIRSSGGRTYYADSVKGRFTISRDNANNTVYLQMNSLKPEDTAVYYCAADWIYAPWYYQESVEYYYWGQGTQVTVSS | low polyreactivity |
| QVQLVESGGGLVQAGGSLRLSCAASGIIFSSNAMGWYRQAPGKERELVAAISRRGGSTYYADSVKGRFTISRDNAKNTVYLQMNSLKPEDTAVYYCNALLYNGAGYDYWGQGTQVTVSS | high polyreactivity |

| Sequence | polyreactivity (PSR sort gate) |
| --- | --- |
| QVQLVESGGGLVEAGGRLRLSCAAYGRIFYYNGMGCYRQAPGKERELVAAITSGGSTNYADSEKGRFTISRDNAKNNVYLQMKSVKPEDTAVSYCAADYYYYVAGVHFDYWGQGTQVTVSS | low polyreactivity |
| QVQLVESGGGLVQAGGSLRLSCAASGSTFVNNAMGWSREARGKERELVAAIRSSDGRTYYADSVKGRFTISRDKAKNTVYLQMNSLKPEDTAVDYCATAVGTKYRTRIFEYYYWGQGTQVTVSS | high polyreactivity |
| QVQLVESGGGLVQAGGSLRLSCAASGRIFFNYAMGWYRQAPGKERELVAAIRGGGSTYADSVKGRFTISRDNAKNTVYLQMNSLKPEDTAVYYCAARYSGSPYHTRRYYYWGQGTQVTVSS | high polyreactivity |
| QVQLVESGGGLVQAGGSLRLSCAASGLTFTRYDMGWYRQAPGKERELVASISQSGTSTHYADSVKGRFTISRDNAKNTVYLQMNSLKPEDTAVYYCAADYVSRYYVKWYRGFDYWGQGTQVTVSS | low polyreactivity |
| QVQLVESGGGLVQAGGSLRLSCAASGFIFYAYAMGWYRQAPGKERELVAAITGSGGRTYYADSVKGRFTISRDNAKNTVYLQMNSLKPEDTAVYYCAAYYTSGGSRTYDYWGQGTQVTVSS | high polyreactivity |
| QVHLVESGGGLVQAGGSLRLICAASGSIFPRNAMGWYRQAPGKERELVARINSGGTTKYADSVKGRFTISRDNAKNTVFLQMNSLKPEDTAVYYCNADTYILDPLRKSYGYDYWGQGTQVTVSS | low polyreactivity |
| QVQLVESVGGLVQAGGSLRLSCPASGSIFGPYAMGWYRQAPGKERELVAAMTIGGDNTYYADSVKGRFTISRDNAKNTVYLQMNSLKPEDTAVYYCAAKYYGGKPHYYEYYYWGQGTQVTVSS | low polyreactivity |
| QVQLVESGGGLVQAGGSLGLSCAASGIILCYYDMGWYRQAPGKERELVAAITYSGSSTYYADSVKGRFTISRDNAKNTVYLLMNSLKPEDTAVYYCNAGWFYGAIWNYDYWGQGTKVTVSS | low polyreactivity |
| QVQLVESGGGLVQAGGSLRLSCAASGRTFQTNAMGWYRQAPGKVRELVAAISSTGGSTYYADSVKGRFTISRDNAKYTVYLQMNSLKPEDTAVYYCNAGRTYRYDYWGQGTQVTVSS | high polyreactivity |
| QVQLVESGGGLVQAGGSLSVSCAASGFTFDRYAMGWYRQAPGKERELVAAISGSGDSTFYADSVKGRFTISRDNAKNTVYLQMNSLKPVDTAVYYCNAKRSFRWTYGYWGQGSQVTVSS | high polyreactivity |
| QVQLVESGGGLVQAGGSLRLSCAASGYILQINAMGWYRQAPGKERELVAAISISGGNTYYADSVKGRFTISRDNAKNTVYLQMNSLKPEDTAVYYCAAYRYYSYLVRYGLLLAYYYWGQGTQVTVSS | low polyreactivity |
| QVQLVESGGGLVQAGGSLRLSCAASGITFNYYAMGWYRQAPGKERELVAVISSSGGRTYYADSVKGRFTISRDNAKNTVYLQMNSLKPEDTAVYYCAAGGSVAFYYWGQGTQVTVSS | high polyreactivity |
| QVQLVESGGGLVQAGGSLRLSCAASGRIFYVYAMGRYRQAPGKERELVAAINWSGDSTYYADSVKGRFTISRDNAKNTVYLQLNSLKPEDTAVYYCARARPTGYNYWGQGTQVTVSS | high polyreactivity |
| QVQLVESGGGLVQAGGSLRLSCAASGRTFDNNAMGWYRQAPGKEREFVAAITTGVGSTYADSVKGRFTISRDNAKNTVYLQMNSLKPEDTAVYYCAADSYWLFDAYDYWGQGTQVTVSS | low polyreactivity |
| QVQLVESRGGLVQAGGSLRLSCAASGFIFSYYAMGWYRQAPGKERELVAAISGLGGSTYYADSVKGRFTISRDNAKNTVYLQMNSLKPEDTAVYYCAATTLRYYRHGDYWGQGTQVTVSS | low polyreactivity |
| QVQLVESGGGLVQAGGSLRLSCAASGFIVVFNAMGWYRQAPGKERELVAAINGGDITNYADSVKGRFTISRDNAKNTVYLQMNSLKPEDTAVYYCAADGEDSMWTGYDYDYWGQGTQVTVSS | low polyreactivity |
| QVQLVESGGGLVQAGGSLRLSCAASGSIFNRYAIGWYRQAPGKERELFAAISSTGSTYYADSVKGRFTISRDNAKKTVYLQMNRLKPEDTAVYYCNADVLALAPYDYWGQGTQVNVSS | low polyreactivity |
| QVQLVESGGALVQAGGSLRLRCAASGTFFIYAMGWYRQAPGKEREFVATISTGGSTNYADSVKGRFTISRDNAKNTVYLQMNSLKPADTAVYYCAAEWLYPHDGGYRRPMDYWGQGTKVTVSS | low polyreactivity |
| QVQLVESGGGLVQAGGSLRLSCAASGSIFPRNAMGWYRQAPGKERELVAGISSGGSTNYADSVKGRFTISRDNAKNTVYLQMNSLKPEDTAVYYCAARQWIRNLGFGYSIYYYWGLGTQVTVSS | high polyreactivity |
| QVQLVESGGGLVQAGGSLRLTCAASGFTIAWNAMGWYRPSPGKERELVAAISAGGGSTYYADSVKGRFTISRDNAKNTVYLQMNSLKPEDTAVYYCAARRTFKYGSYAYYYWGQGTQVTVSS | high polyreactivity |
| QVQLVESGGGLVQAGGSLRLSCAASGSTFWTNDMGWYRQAPGKERELVAAISQSAGDTYYADSVKGRFTISRDNAKNTVYLQMNSLKPEDTAVSYCAADLVFYPFTWDGYYYWGQGTQVTVSS | low polyreactivity |
